Values after ≈ are worked out from the molar mass of the structure shown. Where no end group is shown, it is not given here.
What was measured:
[1] = Iso-electric point of CPP peptides (Table 1); assay type: physicochemical
Text: Celecoxib (CXB) was provided by Pfizer (Skokie, Ill.). The triglyceride Miglyol 812 was obtained from Sasol Germany GmbH (Witten, Germany) and Compritol 888 ATO was provided by Gattefosse (Saint Priest, France). The phospholipids 1-palmitoyl-2-oleoyl-phosphatidylcholine (POPC), 1,2-dioleoyl-sn-glycero-3-phosphoethanolamine (DOPE) and 1,2-di-(9Z-octadecenoyl)-sn-glycero-3-[(N-(5-amino-1-carboxypentyl)iminodiacetic acid)succinyl] (nickel salt) (DOGS-NTA-Ni) were purchased from Avanti Polar Lipids (USA). Cholesterol, Tween 80, pH 7.4 phosphate buffer saline (PBS), paraformaldehyde, tetrahydrofuran (THF), trifluoro acetic acid (TFA), and dialysis membranes (molecular weight cut off 12,400 daltons and flat width of 23 mm) were procured from Sigma-Aldrich Chemicals (St. Louis, USA). Polyoxyethylene-20 oleyl ether or Volpo-20 (Oleth-20) was a kind gift from Croda Inc (New Jersey, USA). Vivaspin centrifuge filters (molecular weight cut off 10,000 Daltons) was procured from Sartorius Ltd, (Stonehouse, UK). All other chemicals used herein were of analytical grade. All of the CPP peptides were synthesized by GenScript Corporation (NJ, USA). Sce Table 1 below for details of the composition, molecular weight and iso-electric points of the CPPs. Fluorescent Isothiocyanate (FITC), DID-oil and DIO fluorescent dyes were procured from Invitrogen (USA).

Solubility of CXB = assay type: physicochemical

| Compound | Iso-electric point [1] | solubility (Solubility of CXB; 0.1% w/v Volpo 20 in pH 7.4 PBS, aqueous with cosolvent or surfactant or cyclodextrin, in 0.1% Volpo 20 (receptor fluid, pH 7.4 PBS), read-out: saturation solubility) | solubility in water (Solubility of CXB; water) |
| --- | --- | --- | --- |
| YKALRISRKLAKHHHHHH (syntheticall generated peptide) [reference compound] | 11.6 |  |  |
| Cc1ccc(-c2cc(C(F)(F)F)nn2-c2ccc(S(N)(=O)=O)cc2)cc1 [CXB, Celecoxib] |  | 30 µg/mL (≈ 78.7 µM) | insoluble in water |
| RRRRRRRRRRRHHHHHH (synthetically generated peptide) [R11] | 13.4 |  |  |
| YGRKKRRQRRRHHHHHH [TAT] | 12.7 |  |  |
| RRRRRRRRHHHHHH (synthetically generated peptide) [R8] | 13.2 |  |  |
| RRRRRRRRRRRRRRRHHHHHH (synthetically generated peptide) [R15] | 13.5 |  |  |

Source: patent US8715736B2, “Nanoparticle formulations for skin delivery” (Florida Agricultural and Mechanical University, priority 2009, dated 2014)
